Common to all, as to type: biochemical, Pseudomonas putida CBB5
Data set [1] deals with T1, cytochrome c reductase (Ccr) (Pseudomonas putida, UniProt H9N291).
T1 construct: 87 μM bovine cytochrome c (type Ill; Sigma), and 1-20 μg CBB5 protein (depending on purity); made in house; host or cells: column fractions of the natural strain Pseudomonas putida CBB5; not recombinant
Briefly: NAD(P)H:cytochrome c oxidoreductase activity. As for the experimental part:
Enzyme Activity Assays. NADH:cytochrome c oxidoreductase (cytochrome c reductase, Ccr) activity was determined as described by Ueda et al. (1972). A typical 1-mL reaction contained 300 μM NADH, 87 μM bovine cytochrome c (type Ill; Sigma), and 1-20 μg CBB5 protein (depending on purity) in 50 mM KPi buffer. The activity was determined by monitoring the increase in absorbance at 550 nm due to reduction of […] cytochrome c at 30° C. An extinction coefficient of 21,000 M^−1 cm^−1 for reduced minus oxidized cytochrome c was used for quantitating the activity. One unit of activity was defined as one μmol of cytochrome c reduced per minute.

Substrate in data set [2]: Cn1c(=O)[nH]c2ncn(C)c2c1=O
The data set can be described thus: Methylxanthine N-demethylase activity assay with purified Ndm plus partially purified Ccr. The note with it: other: saturating Ccr, 50 μM Fe2+, 30° C., 50 mM KPi pH 7.5. The protocol: (§1) Methylxanthine N-demethylase activity assay contained, in 1-mL total volume, 0.5 mM methylxanthine, 1 mM NADH, 50 μM Fe(NH4)2(SO4)2, and an appropriate amount of Ndm (0.08-7.5 mg protein, depending on purity of the protein) in 50 mM KPi buffer. Approximately 4 U of partially purified Ccr was added to reaction mixture when assaying Ndm in Phenyl Sepharose and Q Sepharose eluant-fractions (Ccr was not added to the enzyme reaction mixture when assaying Ndm activity in DEAE Sepharose eluant-fractions because Ccr co-eluted with Ndm). The reaction mixture was incubated at 30° C. with 300 rpm shaking on an incubating microplate shaker (VWR). Periodically, a small aliquot was sampled from the reaction mixture and mixed with equal volume of acetonitrile for quantifying concentrations of methylxanthines and N-demethylated products by HPLC. One unit of N-demethylase activity was defined as the consumption of one μmole methylxanthine per minute. When Ndm was coupled with the reductase and ferredoxin components of naphthalene dioxygenase of Pseudomonas sp. strain 9816 (Haigler & Gibson, 1990a; Haigler & Gibson, 1990b), 30 and 100 μg of the respective proteins were used. Spinach ferredoxin reductase and ferredoxin were also substituted for Ccr as described by Subramanian et al. (1979).
(§2) Determination of Kinetic Parameters. Apparent kinetic parameters of Ndm were determined by measuring the initial rate of disappearance (vo) of paraxanthine or 7-methylxanthine in 50 mM KPi buffer (pH 7.5) at 30° C. The paraxanthine and 7-methylxanthine concentrations ([S]) used in these experiments were from 20 to 500 μM. Substrates were incubated with Ndm and Ccr under standard conditions for 15 minutes. At 1, 5, 10, and 15 minutes, samples were removed from the reaction mixtures to quantitate substrate concentrations by HPLC. Plots of substrate concentrations against time were used to determine the initial rates of disappearance of substrates which were linear over 15 minutes. The apparent kinetic parameters were determined from Michaelis-Menten plots of Vo against [S] fitted with the equation
(§3) Determination of Oxygen Requirement. Oxygen consumption by Ndm during N-demethylation of paraxanthine was determined in a closed reaction vessel equipped with a Clarke-type oxygen electrode (Digitial Modell 0, Rank Brothers Ltd., Cambridge, England). […] After 13 minutes, a 100-μL aliquot was withdrawn from the reaction, immediately mixed with equal volume of acetonitrile to stop the enzyme reaction, and analyzed for N-demethylation product by HPLC. Background oxygen consumption, possibly due to NADH oxidase enzyme activity in the partially purified Ccr, was quantitated in control reactions containing all reaction components except paraxanthine. […]

Substrate in data set [3]: Cn1cnc2[nH]c(=O)[nH]c(=O)c21
Described as above. Particulars: other: saturating Ccr, 50 μM Fe2+, 30° C., 50 mM KPi pH 7.5. As for the experimental part:
as §1, §2, §3

Substrate in data set [4]: Cn1c(=O)[nH]c2nc[nH]c2c1=O
Briefly: Methylxanthine N-demethylase assay and kinetics, NdmA-His6 with His6-NdmD. The note with it: other: NdmA-His6, 30° C., pH 7.5, ∞ where no activity. The protocol: (§4) Methylxanthine N-demethylase activity assay contained, in 1-ml total volume, 0.5 mM methylxanthine, 1 mM NADH, 50 μM Fe(NH4)2(SO4)2, and an appropriate amount of NdmA-His6 or NdmB-His6 (7.4 μg-2.5 mg protein depending on substrate specificity) in 50 mM KPi buffer (pH 7.5). Approximately 4 U of partially purified reductase, prepared as described previously (Summers et al., 2011) or 59 U of purified His6-NdmD was added to reaction mixture. Catalase from bovine liver (4,000 U) was also added to reactions containing His6-NdmD. The reaction mixture was incubated at 30° C. with 300 rpm shaking on an incubating microplate shaker (VWR, Radnor, Pa.). Periodically, a small aliquot was sampled from the reaction mixture and mixed with equal volume of acetonitrile for quantifying concentrations of methylxanthines and N-demethylated products by HPLC. One unit of N-demethylase activity was defined as the consumption of one […] methylxanthine per minute.
(§5) Apparent kinetic parameters of NdmA-His6 and NdmB-His6 were determined by measuring the initial rate of disappearance (vo) of methylxanthines in 50 mM KPi buffer (pH 7.5) at 30° C. The initial substrate concentrations (ESI) used in these experiments were from 25 to 500 μM. Substrates were incubated with His6-NdmD plus either NdmA-His6 or NdmB-His6 under standard conditions for 15 minutes. At 1, 5, 10, and 15 minutes, samples were removed from the reaction mixtures to quantitate substrate concentrations by HPLC. Plots of substrate concentrations against time were used to determine the initial rates of disappearance of substrates which were linear over 15 minutes. The apparent kinetic parameters were determined from Michaelis-Menten plots of vo against [S] fitted with the equation

Substrate in data set [5]: Cn1c(=O)[nH]c2ncn(C)c2c1=O
The data set is described as above. The note with it: other: NdmA-His6, 30° C., pH 7.5, ∞ where no activity. The protocol:
as §4, §5

Substrate in data set [6]: Cn1c(=O)c2[nH]cnc2n(C)c1=O
Described as above. The note with it: other: NdmA-His6, 30° C., pH 7.5, ∞ where no activity. As for the experimental part: as §4, §5

Substrate in data set [7]: Cn1c(=O)c2c(ncn2C)n(C)c1=O
Described as above. Particulars: other: NdmA-His6, 30° C., pH 7.5, ∞ where no activity. The protocol:
as §4, §5

Substrate in data set [8]: Cn1c(=O)[nH]c(=O)c2[nH]cnc21
Briefly: Methylxanthine N-demethylase assay and kinetics, NdmB-His6 with His6-NdmD. Particulars: other: NdmB-His6, 30° C., pH 7.5, ∞ where no activity. As for the experimental part:
as §4, §5

Substrate in data set [9]: Cn1c(=O)c2[nH]cnc2n(C)c1=O
Described as above. Particulars: other: NdmB-His6, 30° C., pH 7.5, ∞ where no activity. As for the experimental part:
as §4, §5

Substrate in data set [10]: Cn1c(=O)c2c(ncn2C)n(C)c1=O
The data set is described as above. The note with it: other: NdmB-His6, 30° C., pH 7.5, ∞ where no activity. As for the experimental part: as §4, §5

Substrate in data set [11]: Cn1cnc2c1c(=O)[nH]c(=O)n2C
The data set is described as above. The note with it: other: NdmB-His6, 30° C., pH 7.5, ∞ where no activity. The protocol: as §4, §5

What is called Km is the substrate concentration at which the rate is half of its maximum. Usually kcat stands for the number of substrate molecules converted per active site and unit of time at saturation. For orientation: kcat/Km means the turnover number divided by the Michaelis constant.

T1 sequence (H9N291 whole entry): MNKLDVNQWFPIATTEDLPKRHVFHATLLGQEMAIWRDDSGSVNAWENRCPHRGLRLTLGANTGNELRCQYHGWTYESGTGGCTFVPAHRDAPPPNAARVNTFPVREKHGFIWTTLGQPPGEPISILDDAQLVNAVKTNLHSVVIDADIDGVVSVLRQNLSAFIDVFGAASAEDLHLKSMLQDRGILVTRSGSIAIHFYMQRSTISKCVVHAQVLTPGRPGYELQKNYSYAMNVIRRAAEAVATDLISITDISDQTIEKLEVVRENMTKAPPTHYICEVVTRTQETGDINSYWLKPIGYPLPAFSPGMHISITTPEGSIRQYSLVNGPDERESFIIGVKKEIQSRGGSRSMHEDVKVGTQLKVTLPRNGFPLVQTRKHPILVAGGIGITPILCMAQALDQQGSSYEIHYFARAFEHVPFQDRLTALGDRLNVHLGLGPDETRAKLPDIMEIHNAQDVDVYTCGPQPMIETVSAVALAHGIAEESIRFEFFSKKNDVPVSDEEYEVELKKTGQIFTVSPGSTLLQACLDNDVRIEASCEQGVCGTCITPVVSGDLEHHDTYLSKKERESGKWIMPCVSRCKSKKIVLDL

Turning to `NC(=O)C1=CN([C@@H]2O[C@H](COP(=O)(O)OP(=O)(O)OC[C@H]3O[C@@H](n4cnc5c(N)ncnc54)[C@H](OP(=O)(O)O)[C@@H]3O)[C@@H](O)[C@H]2O)C=CC1` [NADPH], in data set [1], the “Ccr activity relative to that with NADH” value was 22%.

B1: N-demethylase (Ndm: NdmA and NdmB subunits) (Pseudomonas putida) (protein)
chain 1: MEQAIINDEREYLRHFWHPVCTVTELEKAHPSSLGPLAVKLLNEQLVVAKLGDEYVAMRDRCAHRSAKLSLGTVSGNRLQCPYHGWQYDTHGACQLVPACPNSPIPNKAKVDRFDCEERYGLIWIRLDSSFDCTEIPYFSAANDPRLRIVIQEPYWWDATAERRWENFTDFSHFAFIHPGTLFDPNNAEPPIVPMDRFNGQFRFVYDTPEDMAVPNQAPIGSFSYTCSMPFAINLEVSKYSSSSLHVLFNVSCPVDSHTTKNFLIFAREQSDDSDYLHIAFNDLVFAEDKPVIESQWPKDAPADEVSVVADKVSIQYRKWLRELKEAHKEGSQAFRSALLDPVIESDRSYI
chain 2: MKEQLKPLLEDKTYLRHFWHPVCTLNEFERANASGHGPMGVTLLGEKLVLARLNSKIIAAADRCAHRSAQLSIGRVCSNAGKDYLECPYHGWRYDEAGACQLIPACPDKSISPRAKISSFDCEVKYDIVWVRLDNSFDCTQIPYLSDFDNPDMQVIVADSYIWETVAERRWENFTDFSHFAFVHPGTLYDPFFASHPTVYVNRVDGELQFKLAPPREMKGIPPEAPMGDFTYRCTMPYSVNLEIKLWKDDSRFVLWTTASPVDNKSCRNFMIIVREKDNQPDHMHLAFQKRVLDEDQPVIESQWPLEIQTSEVSVATDKISVQFRKWHKELSLSAVEGREAFRDSVLTNVIEEEQ
notes: lane 3, natural Ndm purified from P. putida CBB5; made in house; host or cells: purified from the natural strain Pseudomonas putida CBB5 (DEAE, Phenyl and Q Sepharose); not recombinant
With B1, in data set [2], the Km is 50.4 ± 6.8 µM and the turnover number (kcat) amounted to 0.27 ± 0.01 s⁻¹. Besides, in data set [3], the Km turned out to be 63.8 ± 7.5 µM and the kcat stood at 1.58 ± 0.05 s⁻¹.

B2: NdmA-His6 (Pseudomonas putida) (protein)
chain: MEQAIINDEREYLRHFWHPVCTVTELEKAHPSSLGPLAVKLLNEQLVVAKLGDEYVAMRDRCAHRSAKLSLGTVSGNRLQCPYHGWQYDTHGACQLVPACPNSPIPNKAKVDRFDCEERYGLIWIRLDSSFDCTEIPYFSAANDPRLRIVIQEPYWWDATAERRWENFTDFSHFAFIHPGTLFDPNNAEPPIVPMDRFNGQFRFVYDTPEDMAVPNQAPIGSFSYTCSMPFAINLEVSKYSSSSLHVLFNVSCPVDSHTTKNFLIFAREQSDDSDYLHIAFNDLVFAEDKPVIESQWPKDAPADEVSVVADKVSIQYRKWLRELKEAHKEGSQAFRSALLDPVIESDRSYI
notes: made in house; host or cells: E. coli BL21(DE3)
Take B2: the Km in data set [4] turned out to be 266.6 µM; in data set [5], 52.9 µM; in data set [6], 9.1 µM; in data set [7], 37.6 µM. For the same molecule, the kcat in data set [4] came out at 0.26 s⁻¹; in data set [5], 2.21 s⁻¹; in data set [6] it was 1.38 s⁻¹; in data set [7], 3.21 s⁻¹. The kcat/Km in data set [4] stood at 1000 M⁻¹ s⁻¹; in [5], 41700 M⁻¹ s⁻¹; in data set [6] it was 152000 M⁻¹ s⁻¹; in data set [7], 85000 M⁻¹ s⁻¹.

B3: NdmB-His6 (Pseudomonas putida) (protein)
chain: MKEQLKPLLEDKTYLRHFWHPVCTLNEFERANASGHGPMGVTLLGEKLVLARLNSKIIAAADRCAHRSAQLSIGRVCSNAGKDYLECPYHGWRYDEAGACQLIPACPDKSISPRAKISSFDCEVKYDIVWVRLDNSFDCTQIPYLSDFDNPDMQVIVADSYIWETVAERRWENFTDFSHFAFVHPGTLYDPFFASHPTVYVNRVDGELQFKLAPPREMKGIPPEAPMGDFTYRCTMPYSVNLEIKLWKDDSRFVLWTTASPVDNKSCRNFMIIVREKDNQPDHMHLAFQKRVLDEDQPVIESQWPLEIQTSEVSVATDKISVQFRKWHKELSLSAVEGREAFRDSVLTNVIEEEQ
notes: as for B2
For the molecule B3, the Km amounted to 22.4 ± 5.2 µM in data set [8], 169.0 µM in data set [9], 41.7 µM in data set [10] and 25.3 ± 5.1 µM in data set [11]. The kcat in data set [8] amounted to 0.528 ± 0.025 s⁻¹; in data set [10] it was 0.00383 s⁻¹; in [11] it was 0.772 ± 0.0317 s⁻¹. Also, the kcat/Km stood at 23300 M⁻¹ s⁻¹ in data set [8], 100 M⁻¹ s⁻¹ in data set [10] and 30000 M⁻¹ s⁻¹ in data set [11].
